# Measurements as given in the RNAGym collection of RNA variant scans (doi:10.7554/elife.90254).
# B1: LINE1-mini (parent)
# chain: GGCAGAGCUCAACACAGCGUGGCAAAGUGGCUGUGGCUAGACUGCC
# Variants of: B1
# Assay: self-cleavage, relative activity (ratio to wild type); higher = more cleavage; in vitro, sequencing; the parent is a self-cleaving ribozyme
row,Variant,self-cleavage
1,GGCAUACCUCAACACAGCGUGGCAAAGUGGCUGUGGCUAGACUGCC [G5U G7C],0.11
2,GGCAUAUCUCAACACAGCGUGGCAAAGUGGCUGUGGCUAGACUGCC [G5U G7U],0.13
3,GGCAUAACUCAACACAGCGUGGCAAAGUGGCUGUGGCUAGACUGCC [G5U G7A],0.43
4,GGCAUAGCUCAACACAGCGUGGCAAAGUGGCUGUGGCUGGACUGCC [G5U A39G],0.04
5,GGCAUAGCUCAACACAGCGUGGCAAAGUGGCUGUGGCUCGACUGCC [G5U A39C],0.06
6,GGCAUAGCUCAACACAGCGUGGCAAAGUGGCUGUGGCUUGACUGCC [G5U A39U],0.11
7,GGCAUAGCUCAACACAGCAUGGCAAAGUGGCUGUGGCUAGACUGCC [G5U G19A],0.33
8,GGCAUAGCUCAACACAGCCUGGCAAAGUGGCUGUGGCUAGACUGCC [G5U G19C],0.05
9,GGCAUAGCUCAAUACAGCGUGGCAAAGUGGCUGUGGCUAGACUGCC [G5U C13U],0.11
10,GGCAUAGCUCAAAACAGCGUGGCAAAGUGGCUGUGGCUAGACUGCC [G5U C13A],0.09
11,GGCAUAGCUCAAGACAGCGUGGCAAAGUGGCUGUGGCUAGACUGCC [G5U C13G],0.23
12,GGCAUAGCUCAACACAGCGUGGCAAGGUGGCUGUGGCUAGACUGCC [G5U A26G],0.12
13,GGCAUAGCUCAACACAGCGUGGCAACGUGGCUGUGGCUAGACUGCC [G5U A26C],0.11
14,GGCAUAGCUCAACACAGCGUGGCAAUGUGGCUGUGGCUAGACUGCC [G5U A26U],0.09
15,GGCAUAGCUCAACACAGAGUGGCAAAGUGGCUGUGGCUAGACUGCC [G5U C18A],0.07
16,GGCAUAGCUCAACACAGUGUGGCAAAGUGGCUGUGGCUAGACUGCC [G5U C18U],0.1
17,GGCAUAGCUCAACACAGGGUGGCAAAGUGGCUGUGGCUAGACUGCC [G5U C18G],0.06
18,GGCAUAGCUCAACACAGCGUGGCAAAGUGGCUGUGGAUAGACUGCC [G5U C37A],0.06
19,GGCAUAGCUCAACACAGCGUGGCAAAGUGGCUGUGGGUAGACUGCC [G5U C37G],0.07

row,Variant,self-cleavage
1,GGCAUAGCUCAACACAGCGUGGCAAAGUGGCUGUGGUUAGACUGCC [G5U C37U],0.05
2,GGCAUAGCUCAACACAGCGUGGCAAAGUGGCUGUGGCUAGCCUGCC [G5U A41C],0.07
3,GGCAUAGCUCAACACAGCGUGGCAAAGUGGCUGUGGCUAGUCUGCC [G5U A41U],0.08
4,GGCAUAGCUCAACACAGCGUGGCAAAGUGGCUGUGGCUAGGCUGCC [G5U A41G],0.06
5,GGCAUAGAUCAACACAGCGUGGCAAAGUGGCUGUGGCUAGACUGCC [G5U C8A],0.53
6,GGCAUAGUUCAACACAGCGUGGCAAAGUGGCUGUGGCUAGACUGCC [G5U C8U],0.26
7,GGCAUAGGUCAACACAGCGUGGCAAAGUGGCUGUGGCUAGACUGCC [G5U C8G],0.14
8,GGCAUAGCUCAACAUAGCGUGGCAAAGUGGCUGUGGCUAGACUGCC [G5U C15U],0.08
9,GGCAUAGCUCAACAAAGCGUGGCAAAGUGGCUGUGGCUAGACUGCC [G5U C15A],0.05
10,GGCAUAGCUCAACAGAGCGUGGCAAAGUGGCUGUGGCUAGACUGCC [G5U C15G],0.09
11,GGCAUAGCUCAACACAGCGUGGCAAAGUGGCUGUGGCUAGAUUGCC [G5U C42U],0.08
12,GGCAUAGCUCAACACAGCGUGGCAAAGUGGCUGUGGCUAGAGUGCC [G5U C42G],0.04
13,GGCAUAGCUCAACACAGCGUGGCAAAGUGGCUGUGGCUAGAAUGCC [G5U C42A],0.38
14,GGCAUAGCUCAACACAGCGUGGCAAAGUGGGUGUGGCUAGACUGCC [G5U C31G],0.05
15,GGCAUAGCUCAACACAGCGUGGCAAAGUGGUUGUGGCUAGACUGCC [G5U C31U],0.06
16,GGCAUAGCUCAACACAGCGUGGCAAAGUGGAUGUGGCUAGACUGCC [G5U C31A],0.04
17,GGCAUAGCUCAACACAUCGUGGCAAAGUGGCUGUGGCUAGACUGCC [G5U G17U],0.05
18,GGCAUAGCUCAACACACCGUGGCAAAGUGGCUGUGGCUAGACUGCC [G5U G17C],0.06
19,GGCAUAGCUCAACACAACGUGGCAAAGUGGCUGUGGCUAGACUGCC [G5U G17A],0.1

row,Variant,self-cleavage
1,GGCAUAGCUCAACACAGCGUGGCAAAGUGGCUGUGGCUAGACUGCG [G5U C46G],0.13
2,GGCAUAGCUCAACACAGCGUGGCAAAGUGGCUGUGGCUAGACUGCU [G5U C46U],0.07
3,GGCAUAGCUCAACACAGCGUGGCAAAGUGGCUGUGGCUAGACUGCA [G5U C46A],0.11
4,GGCAUAGCUCAACACAGCGUGGCAUAGUGGCUGUGGCUAGACUGCC [G5U A25U],0.08
5,GGCAUAGCUCAACACAGCGUGGCAGAGUGGCUGUGGCUAGACUGCC [G5U A25G],0.12
6,GGCAUAGCUCAACACAGCGUGGCACAGUGGCUGUGGCUAGACUGCC [G5U A25C],0.05
7,GGCAUAGCUUAACACAGCGUGGCAAAGUGGCUGUGGCUAGACUGCC [G5U C10U],0.06
8,GGCAUAGCUGAACACAGCGUGGCAAAGUGGCUGUGGCUAGACUGCC [G5U C10G],0.03
9,GGCAUAGCUAAACACAGCGUGGCAAAGUGGCUGUGGCUAGACUGCC [G5U C10A],0.03
10,GGCAUAGCUCAACACAGCGUGGCAAAGUGGCUGUGGCUAGACUGGC [G5U C45G],0.08
11,GGCAUAGCUCAACACAGCGUGGCAAAGUGGCUGUGGCUAGACUGUC [G5U C45U],0.08
12,GGCAUAGCUCAACACAGCGUGGCAAAGUGGCUGUGGCUAGACUGAC [G5U C45A],0.08
13,GGCAUAGCUCAACACAGCGUGGCCAAGUGGCUGUGGCUAGACUGCC [G5U A24C],0.08
14,GGCAUAGCUCAACACAGCGUGGCGAAGUGGCUGUGGCUAGACUGCC [G5U A24G],0.19
15,GGCAUAGCUCAACACAGCGUGGCUAAGUGGCUGUGGCUAGACUGCC [G5U A24U],0.08
16,GGCAUAGCUCAACACAGCGUGGGAAAGUGGCUGUGGCUAGACUGCC [G5U C23G],0.12
17,GGCAUAGCUCAACACAGCGUGGUAAAGUGGCUGUGGCUAGACUGCC [G5U C23U],0.12
18,GGCAUAGCUCAACACAGCGUGGAAAAGUGGCUGUGGCUAGACUGCC [G5U C23A],0.11
